What all share (assay): cell-based or functional assay
For one assay, the target named is human glucagon receptor (human, UniProt P47871 26-477).
Another assay addresses T1, human GIP receptor (human, UniProt P48546 22-466).
T1 sequence (looked up): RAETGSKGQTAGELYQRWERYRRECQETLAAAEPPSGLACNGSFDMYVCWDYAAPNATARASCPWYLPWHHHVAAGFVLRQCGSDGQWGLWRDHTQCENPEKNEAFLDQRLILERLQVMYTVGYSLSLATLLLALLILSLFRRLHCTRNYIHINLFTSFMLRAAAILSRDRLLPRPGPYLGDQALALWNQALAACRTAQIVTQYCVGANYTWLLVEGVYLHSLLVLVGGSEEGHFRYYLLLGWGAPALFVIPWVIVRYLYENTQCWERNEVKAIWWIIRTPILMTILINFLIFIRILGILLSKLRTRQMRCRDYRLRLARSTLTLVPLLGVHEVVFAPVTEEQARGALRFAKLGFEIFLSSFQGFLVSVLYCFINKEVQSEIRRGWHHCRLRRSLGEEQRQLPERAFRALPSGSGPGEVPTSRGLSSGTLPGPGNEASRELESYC

The target of the next assay is human GLP-1 receptor (human, UniProt P43220 24-463).

*1 amine or outer side, *2 acyl side, *3 side chain or, on linkers, in order; H or OH if unused. Where no end group is shown, it is not given here. Side-chain parts run from the residue outwards. [ ]: non-standard residue; d: D form. The star is where a group is joined. γGlu = O=C(O)[C@H](CCC(=O)[*:2])N[*:1]; Stearoyl = CCCCCCCCCCCCCCCCCC(=O)*; Palmitoyl = CCCCCCCCCCCCCCCC(=O)*; Aib = CC(C)(N)C(=O)O

Chain of human glucagon receptor (P47871 26-477): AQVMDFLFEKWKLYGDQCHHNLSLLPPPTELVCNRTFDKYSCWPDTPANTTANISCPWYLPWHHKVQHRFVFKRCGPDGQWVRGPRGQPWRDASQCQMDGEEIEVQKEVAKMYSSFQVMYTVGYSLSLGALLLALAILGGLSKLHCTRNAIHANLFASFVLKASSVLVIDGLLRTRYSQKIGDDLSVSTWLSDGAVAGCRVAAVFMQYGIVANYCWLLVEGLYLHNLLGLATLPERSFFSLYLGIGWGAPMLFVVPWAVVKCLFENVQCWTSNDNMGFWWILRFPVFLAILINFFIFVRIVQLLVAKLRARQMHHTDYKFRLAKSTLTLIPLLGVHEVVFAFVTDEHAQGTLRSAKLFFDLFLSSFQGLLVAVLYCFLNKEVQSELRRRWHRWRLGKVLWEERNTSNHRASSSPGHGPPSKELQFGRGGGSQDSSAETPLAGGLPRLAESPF

B1: exendin-4 peptide analogue SEQ ID NO: 58 (peptide)
peptide: Y[Aib]EGTFTSDLSIQK([γGlu-Stearoyl])ESKAAHEFIEWLKAGGPSSGAPPPSK-NH2
modifications: N-terminus assumed
SMILES: CCCCCCCCCCCCCCCCCC(=O)N[C@@H](CCC(=O)NCCCC[C@H](NC(=O)[C@H](CCC(N)=O)NC(=O)[C@@H](NC(=O)[C@H](CO)NC(=O)[C@H](CC(C)C)NC(=O)[C@H](CC(=O)O)NC(=O)[C@H](CO)NC(=O)[C@@H](NC(=O)[C@H](Cc1ccccc1)NC(=O)[C@@H](NC(=O)CNC(=O)[C@H](CCC(=O)O)NC(=O)C(C)(C)NC(=O)[C@@H](N)Cc1ccc(O)cc1)[C@@H](C)O)[C@@H](C)O)[C@@H](C)CC)C(=O)N[C@@H](CCC(=O)O)C(=O)N[C@@H](CO)C(=O)N[C@@H](CCCCN)C(=O)N[C@@H](C)C(=O)N[C@@H](C)C(=O)N[C@@H](Cc1c[nH]cn1)C(=O)N[C@@H](CCC(=O)O)C(=O)N[C@@H](Cc1ccccc1)C(=O)N[C@H](C(=O)N[C@@H](CCC(=O)O)C(=O)N[C@@H](Cc1c[nH]c2ccccc12)C(=O)N[C@@H](CC(C)C)C(=O)N[C@@H](CCCCN)C(=O)N[C@@H](C)C(=O)NCC(=O)NCC(=O)N1CCC[C@H]1C(=O)N[C@@H](CO)C(=O)N[C@@H](CO)C(=O)NCC(=O)N[C@@H](C)C(=O)N1CCC[C@H]1C(=O)N1CCC[C@H]1C(=O)N1CCC[C@H]1C(=O)N[C@@H](CO)C(=O)N[C@@H](CCCCN)C(N)=O)[C@@H](C)CC)C(=O)O
Take B1: the “EC50 hGLUC R” value with human glucagon receptor turned out to be 16 nM. Besides, the “EC50 hGIP R” value with human GIP receptor was found to be 0.0086 nM. In the assay with human GLP-1 receptor, the “EC50 hGLP-1 R” value is 0.0125 nM.

B2: exendin-4 peptide analogue SEQ ID NO: 55 (peptide)
peptide: Y[Aib]EGTFTSDLSIQK([γGlu-Palmitoyl])DKRAAQLFIEWLKNGGPSSGAPPPS-NH2
modifications: N-terminus assumed
SMILES: CCCCCCCCCCCCCCCC(=O)N[C@@H](CCC(=O)NCCCC[C@H](NC(=O)[C@H](CCC(N)=O)NC(=O)[C@@H](NC(=O)[C@H](CO)NC(=O)[C@H](CC(C)C)NC(=O)[C@H](CC(=O)O)NC(=O)[C@H](CO)NC(=O)[C@@H](NC(=O)[C@H](Cc1ccccc1)NC(=O)[C@@H](NC(=O)CNC(=O)[C@H](CCC(=O)O)NC(=O)C(C)(C)NC(=O)[C@@H](N)Cc1ccc(O)cc1)[C@@H](C)O)[C@@H](C)O)[C@@H](C)CC)C(=O)N[C@@H](CC(=O)O)C(=O)N[C@@H](CCCCN)C(=O)N[C@@H](CCCNC(=N)N)C(=O)N[C@@H](C)C(=O)N[C@@H](C)C(=O)N[C@@H](CCC(N)=O)C(=O)N[C@@H](CC(C)C)C(=O)N[C@@H](Cc1ccccc1)C(=O)N[C@H](C(=O)N[C@@H](CCC(=O)O)C(=O)N[C@@H](Cc1c[nH]c2ccccc12)C(=O)N[C@@H](CC(C)C)C(=O)N[C@@H](CCCCN)C(=O)N[C@@H](CC(N)=O)C(=O)NCC(=O)NCC(=O)N1CCC[C@H]1C(=O)N[C@@H](CO)C(=O)N[C@@H](CO)C(=O)NCC(=O)N[C@@H](C)C(=O)N1CCC[C@H]1C(=O)N1CCC[C@H]1C(=O)N1CCC[C@H]1C(=O)N[C@@H](CO)C(N)=O)[C@@H](C)CC)C(=O)O
As for B2, the “EC50 hGLUC R” value in the assay with human glucagon receptor came to 18.3 nM. Further, the “EC50 hGIP R” value with human GIP receptor was 0.0156 nM. Besides, the “EC50 hGLP-1 R” value with human GLP-1 receptor was found to be 0.0161 nM.

B3: exendin-4 peptide analogue SEQ ID NO: 56 (peptide)
peptide: Y[Aib]QGTFTSDLSKQK([γGlu-Palmitoyl])DSRAARDFIEWLKAGGPSSGAPPPS-NH2
modifications: N-terminus assumed
SMILES: CCCCCCCCCCCCCCCC(=O)N[C@@H](CCC(=O)NCCCC[C@H](NC(=O)[C@H](CCC(N)=O)NC(=O)[C@H](CCCCN)NC(=O)[C@H](CO)NC(=O)[C@H](CC(C)C)NC(=O)[C@H](CC(=O)O)NC(=O)[C@H](CO)NC(=O)[C@@H](NC(=O)[C@H](Cc1ccccc1)NC(=O)[C@@H](NC(=O)CNC(=O)[C@H](CCC(N)=O)NC(=O)C(C)(C)NC(=O)[C@@H](N)Cc1ccc(O)cc1)[C@@H](C)O)[C@@H](C)O)C(=O)N[C@@H](CC(=O)O)C(=O)N[C@@H](CO)C(=O)N[C@@H](CCCNC(=N)N)C(=O)N[C@@H](C)C(=O)N[C@@H](C)C(=O)N[C@@H](CCCNC(=N)N)C(=O)N[C@@H](CC(=O)O)C(=O)N[C@@H](Cc1ccccc1)C(=O)N[C@H](C(=O)N[C@@H](CCC(=O)O)C(=O)N[C@@H](Cc1c[nH]c2ccccc12)C(=O)N[C@@H](CC(C)C)C(=O)N[C@@H](CCCCN)C(=O)N[C@@H](C)C(=O)NCC(=O)NCC(=O)N1CCC[C@H]1C(=O)N[C@@H](CO)C(=O)N[C@@H](CO)C(=O)NCC(=O)N[C@@H](C)C(=O)N1CCC[C@H]1C(=O)N1CCC[C@H]1C(=O)N1CCC[C@H]1C(=O)N[C@@H](CO)C(N)=O)[C@@H](C)CC)C(=O)O
B3: in the assay with human glucagon receptor, the “EC50 hGLUC R” value worked out at 0.0199 nM. In the assay with human GIP receptor, the “EC50 hGIP R” value turned out to be 0.162 nM. Further, the “EC50 hGLP-1 R” value with human GLP-1 receptor was 0.0046 nM.

B4: exendin-4 peptide analogue SEQ ID NO: 59 (peptide)
peptide: Y[Aib]EGTFTSDLSIQK([γGlu-Palmitoyl])EKRAAHEFIEWLKNTGPSSGAPPPS-NH2
modifications: N-terminus assumed
SMILES: CCCCCCCCCCCCCCCC(=O)N[C@@H](CCC(=O)NCCCC[C@H](NC(=O)[C@H](CCC(N)=O)NC(=O)[C@@H](NC(=O)[C@H](CO)NC(=O)[C@H](CC(C)C)NC(=O)[C@H](CC(=O)O)NC(=O)[C@H](CO)NC(=O)[C@@H](NC(=O)[C@H](Cc1ccccc1)NC(=O)[C@@H](NC(=O)CNC(=O)[C@H](CCC(=O)O)NC(=O)C(C)(C)NC(=O)[C@@H](N)Cc1ccc(O)cc1)[C@@H](C)O)[C@@H](C)O)[C@@H](C)CC)C(=O)N[C@@H](CCC(=O)O)C(=O)N[C@@H](CCCCN)C(=O)N[C@@H](CCCNC(=N)N)C(=O)N[C@@H](C)C(=O)N[C@@H](C)C(=O)N[C@@H](Cc1c[nH]cn1)C(=O)N[C@@H](CCC(=O)O)C(=O)N[C@@H](Cc1ccccc1)C(=O)N[C@H](C(=O)N[C@@H](CCC(=O)O)C(=O)N[C@@H](Cc1c[nH]c2ccccc12)C(=O)N[C@@H](CC(C)C)C(=O)N[C@@H](CCCCN)C(=O)N[C@@H](CC(N)=O)C(=O)N[C@H](C(=O)NCC(=O)N1CCC[C@H]1C(=O)N[C@@H](CO)C(=O)N[C@@H](CO)C(=O)NCC(=O)N[C@@H](C)C(=O)N1CCC[C@H]1C(=O)N1CCC[C@H]1C(=O)N1CCC[C@H]1C(=O)N[C@@H](CO)C(N)=O)[C@@H](C)O)[C@@H](C)CC)C(=O)O
In the case of B4, in the assay with human glucagon receptor, the “EC50 hGLUC R” value came to 12.3 nM. Moreover, in the assay with human GIP receptor, the “EC50 hGIP R” value came to 0.0175 nM. In addition, the “EC50 hGLP-1 R” value in the assay with human GLP-1 receptor amounted to 0.0075 nM.

B5: exendin-4 peptide analogue SEQ ID NO: 57 (peptide)
peptide: Y[Aib]EGTFTSDLSIQK([γGlu-Palmitoyl])EERAAHEFIEWLKR[Aib]GPSSGAPPPSK-NH2
modifications: N-terminus assumed
SMILES: CCCCCCCCCCCCCCCC(=O)N[C@@H](CCC(=O)NCCCC[C@H](NC(=O)[C@H](CCC(N)=O)NC(=O)[C@@H](NC(=O)[C@H](CO)NC(=O)[C@H](CC(C)C)NC(=O)[C@H](CC(=O)O)NC(=O)[C@H](CO)NC(=O)[C@@H](NC(=O)[C@H](Cc1ccccc1)NC(=O)[C@@H](NC(=O)CNC(=O)[C@H](CCC(=O)O)NC(=O)C(C)(C)NC(=O)[C@@H](N)Cc1ccc(O)cc1)[C@@H](C)O)[C@@H](C)O)[C@@H](C)CC)C(=O)N[C@@H](CCC(=O)O)C(=O)N[C@@H](CCC(=O)O)C(=O)N[C@@H](CCCNC(=N)N)C(=O)N[C@@H](C)C(=O)N[C@@H](C)C(=O)N[C@@H](Cc1c[nH]cn1)C(=O)N[C@@H](CCC(=O)O)C(=O)N[C@@H](Cc1ccccc1)C(=O)N[C@H](C(=O)N[C@@H](CCC(=O)O)C(=O)N[C@@H](Cc1c[nH]c2ccccc12)C(=O)N[C@@H](CC(C)C)C(=O)N[C@@H](CCCCN)C(=O)N[C@@H](CCCNC(=N)N)C(=O)NC(C)(C)C(=O)NCC(=O)N1CCC[C@H]1C(=O)N[C@@H](CO)C(=O)N[C@@H](CO)C(=O)NCC(=O)N[C@@H](C)C(=O)N1CCC[C@H]1C(=O)N1CCC[C@H]1C(=O)N1CCC[C@H]1C(=O)N[C@@H](CO)C(=O)N[C@@H](CCCCN)C(N)=O)[C@@H](C)CC)C(=O)O
Take B5: the “EC50 hGLUC R” value with human glucagon receptor amounted to 14.4 nM. In addition, the “EC50 hGIP R” value with human GIP receptor was 0.0157 nM. The “EC50 hGLP-1 R” value with human GLP-1 receptor is 0.0071 nM.

B6: exendin-4 peptide analogue SEQ ID NO: 60 (peptide)
peptide: Y[Aib]QGTFTSDLSKQK([γGlu-Stearoyl])DEEAARLFIEWLKAGGPSSGAPPPS-NH2
modifications: N-terminus assumed
SMILES: CCCCCCCCCCCCCCCCCC(=O)N[C@@H](CCC(=O)NCCCC[C@H](NC(=O)[C@H](CCC(N)=O)NC(=O)[C@H](CCCCN)NC(=O)[C@H](CO)NC(=O)[C@H](CC(C)C)NC(=O)[C@H](CC(=O)O)NC(=O)[C@H](CO)NC(=O)[C@@H](NC(=O)[C@H](Cc1ccccc1)NC(=O)[C@@H](NC(=O)CNC(=O)[C@H](CCC(N)=O)NC(=O)C(C)(C)NC(=O)[C@@H](N)Cc1ccc(O)cc1)[C@@H](C)O)[C@@H](C)O)C(=O)N[C@@H](CC(=O)O)C(=O)N[C@@H](CCC(=O)O)C(=O)N[C@@H](CCC(=O)O)C(=O)N[C@@H](C)C(=O)N[C@@H](C)C(=O)N[C@@H](CCCNC(=N)N)C(=O)N[C@@H](CC(C)C)C(=O)N[C@@H](Cc1ccccc1)C(=O)N[C@H](C(=O)N[C@@H](CCC(=O)O)C(=O)N[C@@H](Cc1c[nH]c2ccccc12)C(=O)N[C@@H](CC(C)C)C(=O)N[C@@H](CCCCN)C(=O)N[C@@H](C)C(=O)NCC(=O)NCC(=O)N1CCC[C@H]1C(=O)N[C@@H](CO)C(=O)N[C@@H](CO)C(=O)NCC(=O)N[C@@H](C)C(=O)N1CCC[C@H]1C(=O)N1CCC[C@H]1C(=O)N1CCC[C@H]1C(=O)N[C@@H](CO)C(N)=O)[C@@H](C)CC)C(=O)O
Turning to B6, the “EC50 hGLUC R” value in the assay with human glucagon receptor stood at 0.0091 nM. Moreover, the “EC50 hGIP R” value in the assay with human GIP receptor came to 0.0168 nM. Also, the “EC50 hGLP-1 R” value in the assay with human GLP-1 receptor amounted to 0.0053 nM.

The values are drawn from patent US20140213513A1 (Sanofi, priority 2012, published 2014).
